B1: THAP1; numbered along this chain (parent)
chain: MVQSCSAYGCKNRYDKDKPVSFHKFPLTRPSLCKEWEAAVRRKNFKPTKYSSICSEHFTPDCFKRECNNKLLKENAVPTIFLCTEPHDKKEDLLEPQEQLPPPPLPPPVSQVDAAIGLLMPPLQTPVNLSVFCDHNYTVEDTMHQRKRIHQLEQQVEKLRKKLKTAQQRCRRQERQLEKLKEVVHFQKEKDDVSERGYVILPNDYFEIVEVPA

Variants of: B1
Experiment: THAP1 transcriptional activity (GFP+/GFP- enrichment relative to wild-type constructs) (ratio to WT); higher = more THAP1 activity (PSMB5 reporter activation)
Conditions: with PSMB5 promoter-GFP reporter
Outline: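 A lentiviral site-saturation library covering residues 2–213 of human THAP1, with each position changed to all 20 amino acids, was transduced in duplicate at MOI ~0.3 into THAP1-knockout HEK-293T cells with mClover3 knocked in at endogenous PSMB5. Five days later, BFP+ cells were sorted into GFP-dim and GFP-bright bins and variants were counted by Illumina sequencing of genomic DNA amplicons. Activity is the bright/dim read fold change averaged over replicates and divided by the mean of wild-type synonymous constructs.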

Row | Variant | THAP1 transcriptional activity
1 | MVQSCSAYGCKNRYDKDKPVSFHKFPLTRPSLCKEWEAAVRRKNFKPTKYSSICSEHFTPDCFKRECNNKLLKENAVPVIFLCTEPHDKKEDLLEPQEQLPPPPLPPPVSQVDAAIGLLMPPLQTPVNLSVFCDHNYTVEDTMHQRKRIHQLEQQVEKLRKKLKTAQQRCRRQERQLEKLKEVVHFQKEKDDVSERGYVILPNDYFEIVEVPA [T79V] | 0.326
2 | MVQSCSAYGCKNRYDKDKPVSFHKFPLTRPSLCKEWEAAVRRKNFKPTKYSSICSEHFTPDCFKRECNNKLLKENAVPWIFLCTEPHDKKEDLLEPQEQLPPPPLPPPVSQVDAAIGLLMPPLQTPVNLSVFCDHNYTVEDTMHQRKRIHQLEQQVEKLRKKLKTAQQRCRRQERQLEKLKEVVHFQKEKDDVSERGYVILPNDYFEIVEVPA [T79W] | 0.281
3 | MVQSCSAYGCKNRYDKDKPVSFHKFPLTRPSLCKEWEAAVRRKNFKPTKYSSICSEHFTPDCFKRECNNKLLKENAVPYIFLCTEPHDKKEDLLEPQEQLPPPPLPPPVSQVDAAIGLLMPPLQTPVNLSVFCDHNYTVEDTMHQRKRIHQLEQQVEKLRKKLKTAQQRCRRQERQLEKLKEVVHFQKEKDDVSERGYVILPNDYFEIVEVPA [T79Y] | 0.151
4 | MVQSCSAYGCKNRYDKDKPVSFHKFPLTRPSLCKEWEAAVRRKNFKPTKYSSICSEHFTPDCFKRECNNKLLKENAVPTAFLCTEPHDKKEDLLEPQEQLPPPPLPPPVSQVDAAIGLLMPPLQTPVNLSVFCDHNYTVEDTMHQRKRIHQLEQQVEKLRKKLKTAQQRCRRQERQLEKLKEVVHFQKEKDDVSERGYVILPNDYFEIVEVPA [I80A] | 0.266
5 | MVQSCSAYGCKNRYDKDKPVSFHKFPLTRPSLCKEWEAAVRRKNFKPTKYSSICSEHFTPDCFKRECNNKLLKENAVPTCFLCTEPHDKKEDLLEPQEQLPPPPLPPPVSQVDAAIGLLMPPLQTPVNLSVFCDHNYTVEDTMHQRKRIHQLEQQVEKLRKKLKTAQQRCRRQERQLEKLKEVVHFQKEKDDVSERGYVILPNDYFEIVEVPA [I80C] | 0.239
6 | MVQSCSAYGCKNRYDKDKPVSFHKFPLTRPSLCKEWEAAVRRKNFKPTKYSSICSEHFTPDCFKRECNNKLLKENAVPTDFLCTEPHDKKEDLLEPQEQLPPPPLPPPVSQVDAAIGLLMPPLQTPVNLSVFCDHNYTVEDTMHQRKRIHQLEQQVEKLRKKLKTAQQRCRRQERQLEKLKEVVHFQKEKDDVSERGYVILPNDYFEIVEVPA [I80D] | 0.29
7 | MVQSCSAYGCKNRYDKDKPVSFHKFPLTRPSLCKEWEAAVRRKNFKPTKYSSICSEHFTPDCFKRECNNKLLKENAVPTEFLCTEPHDKKEDLLEPQEQLPPPPLPPPVSQVDAAIGLLMPPLQTPVNLSVFCDHNYTVEDTMHQRKRIHQLEQQVEKLRKKLKTAQQRCRRQERQLEKLKEVVHFQKEKDDVSERGYVILPNDYFEIVEVPA [I80E] | 0.459
8 | MVQSCSAYGCKNRYDKDKPVSFHKFPLTRPSLCKEWEAAVRRKNFKPTKYSSICSEHFTPDCFKRECNNKLLKENAVPTFFLCTEPHDKKEDLLEPQEQLPPPPLPPPVSQVDAAIGLLMPPLQTPVNLSVFCDHNYTVEDTMHQRKRIHQLEQQVEKLRKKLKTAQQRCRRQERQLEKLKEVVHFQKEKDDVSERGYVILPNDYFEIVEVPA [I80F] | 0.463
9 | MVQSCSAYGCKNRYDKDKPVSFHKFPLTRPSLCKEWEAAVRRKNFKPTKYSSICSEHFTPDCFKRECNNKLLKENAVPTGFLCTEPHDKKEDLLEPQEQLPPPPLPPPVSQVDAAIGLLMPPLQTPVNLSVFCDHNYTVEDTMHQRKRIHQLEQQVEKLRKKLKTAQQRCRRQERQLEKLKEVVHFQKEKDDVSERGYVILPNDYFEIVEVPA [I80G] | 0.55
10 | MVQSCSAYGCKNRYDKDKPVSFHKFPLTRPSLCKEWEAAVRRKNFKPTKYSSICSEHFTPDCFKRECNNKLLKENAVPTHFLCTEPHDKKEDLLEPQEQLPPPPLPPPVSQVDAAIGLLMPPLQTPVNLSVFCDHNYTVEDTMHQRKRIHQLEQQVEKLRKKLKTAQQRCRRQERQLEKLKEVVHFQKEKDDVSERGYVILPNDYFEIVEVPA [I80H] | 0.323
11 | MVQSCSAYGCKNRYDKDKPVSFHKFPLTRPSLCKEWEAAVRRKNFKPTKYSSICSEHFTPDCFKRECNNKLLKENAVPTLFLCTEPHDKKEDLLEPQEQLPPPPLPPPVSQVDAAIGLLMPPLQTPVNLSVFCDHNYTVEDTMHQRKRIHQLEQQVEKLRKKLKTAQQRCRRQERQLEKLKEVVHFQKEKDDVSERGYVILPNDYFEIVEVPA [I80L] | 0.606
12 | MVQSCSAYGCKNRYDKDKPVSFHKFPLTRPSLCKEWEAAVRRKNFKPTKYSSICSEHFTPDCFKRECNNKLLKENAVPTMFLCTEPHDKKEDLLEPQEQLPPPPLPPPVSQVDAAIGLLMPPLQTPVNLSVFCDHNYTVEDTMHQRKRIHQLEQQVEKLRKKLKTAQQRCRRQERQLEKLKEVVHFQKEKDDVSERGYVILPNDYFEIVEVPA [I80M] | 0.484
13 | MVQSCSAYGCKNRYDKDKPVSFHKFPLTRPSLCKEWEAAVRRKNFKPTKYSSICSEHFTPDCFKRECNNKLLKENAVPTNFLCTEPHDKKEDLLEPQEQLPPPPLPPPVSQVDAAIGLLMPPLQTPVNLSVFCDHNYTVEDTMHQRKRIHQLEQQVEKLRKKLKTAQQRCRRQERQLEKLKEVVHFQKEKDDVSERGYVILPNDYFEIVEVPA [I80N] | 0.429
14 | MVQSCSAYGCKNRYDKDKPVSFHKFPLTRPSLCKEWEAAVRRKNFKPTKYSSICSEHFTPDCFKRECNNKLLKENAVPTPFLCTEPHDKKEDLLEPQEQLPPPPLPPPVSQVDAAIGLLMPPLQTPVNLSVFCDHNYTVEDTMHQRKRIHQLEQQVEKLRKKLKTAQQRCRRQERQLEKLKEVVHFQKEKDDVSERGYVILPNDYFEIVEVPA [I80P] | 0.235
15 | MVQSCSAYGCKNRYDKDKPVSFHKFPLTRPSLCKEWEAAVRRKNFKPTKYSSICSEHFTPDCFKRECNNKLLKENAVPTQFLCTEPHDKKEDLLEPQEQLPPPPLPPPVSQVDAAIGLLMPPLQTPVNLSVFCDHNYTVEDTMHQRKRIHQLEQQVEKLRKKLKTAQQRCRRQERQLEKLKEVVHFQKEKDDVSERGYVILPNDYFEIVEVPA [I80Q] | 0.628
16 | MVQSCSAYGCKNRYDKDKPVSFHKFPLTRPSLCKEWEAAVRRKNFKPTKYSSICSEHFTPDCFKRECNNKLLKENAVPTRFLCTEPHDKKEDLLEPQEQLPPPPLPPPVSQVDAAIGLLMPPLQTPVNLSVFCDHNYTVEDTMHQRKRIHQLEQQVEKLRKKLKTAQQRCRRQERQLEKLKEVVHFQKEKDDVSERGYVILPNDYFEIVEVPA [I80R] | 0.963
17 | MVQSCSAYGCKNRYDKDKPVSFHKFPLTRPSLCKEWEAAVRRKNFKPTKYSSICSEHFTPDCFKRECNNKLLKENAVPTSFLCTEPHDKKEDLLEPQEQLPPPPLPPPVSQVDAAIGLLMPPLQTPVNLSVFCDHNYTVEDTMHQRKRIHQLEQQVEKLRKKLKTAQQRCRRQERQLEKLKEVVHFQKEKDDVSERGYVILPNDYFEIVEVPA [I80S] | 0.272
18 | MVQSCSAYGCKNRYDKDKPVSFHKFPLTRPSLCKEWEAAVRRKNFKPTKYSSICSEHFTPDCFKRECNNKLLKENAVPTTFLCTEPHDKKEDLLEPQEQLPPPPLPPPVSQVDAAIGLLMPPLQTPVNLSVFCDHNYTVEDTMHQRKRIHQLEQQVEKLRKKLKTAQQRCRRQERQLEKLKEVVHFQKEKDDVSERGYVILPNDYFEIVEVPA [I80T] | 0.298
19 | MVQSCSAYGCKNRYDKDKPVSFHKFPLTRPSLCKEWEAAVRRKNFKPTKYSSICSEHFTPDCFKRECNNKLLKENAVPTVFLCTEPHDKKEDLLEPQEQLPPPPLPPPVSQVDAAIGLLMPPLQTPVNLSVFCDHNYTVEDTMHQRKRIHQLEQQVEKLRKKLKTAQQRCRRQERQLEKLKEVVHFQKEKDDVSERGYVILPNDYFEIVEVPA [I80V] | 0.963
20 | MVQSCSAYGCKNRYDKDKPVSFHKFPLTRPSLCKEWEAAVRRKNFKPTKYSSICSEHFTPDCFKRECNNKLLKENAVPTWFLCTEPHDKKEDLLEPQEQLPPPPLPPPVSQVDAAIGLLMPPLQTPVNLSVFCDHNYTVEDTMHQRKRIHQLEQQVEKLRKKLKTAQQRCRRQERQLEKLKEVVHFQKEKDDVSERGYVILPNDYFEIVEVPA [I80W] | 0.268
21 | MVQSCSAYGCKNRYDKDKPVSFHKFPLTRPSLCKEWEAAVRRKNFKPTKYSSICSEHFTPDCFKRECNNKLLKENAVPTIALCTEPHDKKEDLLEPQEQLPPPPLPPPVSQVDAAIGLLMPPLQTPVNLSVFCDHNYTVEDTMHQRKRIHQLEQQVEKLRKKLKTAQQRCRRQERQLEKLKEVVHFQKEKDDVSERGYVILPNDYFEIVEVPA [F81A] | 0.367
22 | MVQSCSAYGCKNRYDKDKPVSFHKFPLTRPSLCKEWEAAVRRKNFKPTKYSSICSEHFTPDCFKRECNNKLLKENAVPTICLCTEPHDKKEDLLEPQEQLPPPPLPPPVSQVDAAIGLLMPPLQTPVNLSVFCDHNYTVEDTMHQRKRIHQLEQQVEKLRKKLKTAQQRCRRQERQLEKLKEVVHFQKEKDDVSERGYVILPNDYFEIVEVPA [F81C] | 0.223
23 | MVQSCSAYGCKNRYDKDKPVSFHKFPLTRPSLCKEWEAAVRRKNFKPTKYSSICSEHFTPDCFKRECNNKLLKENAVPTIDLCTEPHDKKEDLLEPQEQLPPPPLPPPVSQVDAAIGLLMPPLQTPVNLSVFCDHNYTVEDTMHQRKRIHQLEQQVEKLRKKLKTAQQRCRRQERQLEKLKEVVHFQKEKDDVSERGYVILPNDYFEIVEVPA [F81D] | 0.125
24 | MVQSCSAYGCKNRYDKDKPVSFHKFPLTRPSLCKEWEAAVRRKNFKPTKYSSICSEHFTPDCFKRECNNKLLKENAVPTIELCTEPHDKKEDLLEPQEQLPPPPLPPPVSQVDAAIGLLMPPLQTPVNLSVFCDHNYTVEDTMHQRKRIHQLEQQVEKLRKKLKTAQQRCRRQERQLEKLKEVVHFQKEKDDVSERGYVILPNDYFEIVEVPA [F81E] | 0.405
25 | MVQSCSAYGCKNRYDKDKPVSFHKFPLTRPSLCKEWEAAVRRKNFKPTKYSSICSEHFTPDCFKRECNNKLLKENAVPTIGLCTEPHDKKEDLLEPQEQLPPPPLPPPVSQVDAAIGLLMPPLQTPVNLSVFCDHNYTVEDTMHQRKRIHQLEQQVEKLRKKLKTAQQRCRRQERQLEKLKEVVHFQKEKDDVSERGYVILPNDYFEIVEVPA [F81G] | 0.402
26 | MVQSCSAYGCKNRYDKDKPVSFHKFPLTRPSLCKEWEAAVRRKNFKPTKYSSICSEHFTPDCFKRECNNKLLKENAVPTIHLCTEPHDKKEDLLEPQEQLPPPPLPPPVSQVDAAIGLLMPPLQTPVNLSVFCDHNYTVEDTMHQRKRIHQLEQQVEKLRKKLKTAQQRCRRQERQLEKLKEVVHFQKEKDDVSERGYVILPNDYFEIVEVPA [F81H] | 0.525
27 | MVQSCSAYGCKNRYDKDKPVSFHKFPLTRPSLCKEWEAAVRRKNFKPTKYSSICSEHFTPDCFKRECNNKLLKENAVPTIILCTEPHDKKEDLLEPQEQLPPPPLPPPVSQVDAAIGLLMPPLQTPVNLSVFCDHNYTVEDTMHQRKRIHQLEQQVEKLRKKLKTAQQRCRRQERQLEKLKEVVHFQKEKDDVSERGYVILPNDYFEIVEVPA [F81I] | 0.536
28 | MVQSCSAYGCKNRYDKDKPVSFHKFPLTRPSLCKEWEAAVRRKNFKPTKYSSICSEHFTPDCFKRECNNKLLKENAVPTILLCTEPHDKKEDLLEPQEQLPPPPLPPPVSQVDAAIGLLMPPLQTPVNLSVFCDHNYTVEDTMHQRKRIHQLEQQVEKLRKKLKTAQQRCRRQERQLEKLKEVVHFQKEKDDVSERGYVILPNDYFEIVEVPA [F81L] | 0.224

Source: the supplement of paper PMC11811203
